This assay addresses T1, α4 (3–233) E206R (human, UniProt P78318 3-233, E206R).
T1 sequence (looked up): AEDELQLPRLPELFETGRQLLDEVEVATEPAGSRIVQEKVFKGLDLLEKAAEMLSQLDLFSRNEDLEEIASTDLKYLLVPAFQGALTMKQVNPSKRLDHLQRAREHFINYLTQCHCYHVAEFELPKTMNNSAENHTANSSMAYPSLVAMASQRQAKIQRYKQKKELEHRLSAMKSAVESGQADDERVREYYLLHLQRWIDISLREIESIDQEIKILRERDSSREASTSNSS
In words: pull-down.

B1: GST-tagged nPP2Ac (1–153) (domain or fragment, human, UniProt P67775 1-153, looked up)
chain: MDEKVFTKELDQWIEQLNECKQLSESQVKSLCEKAKEILTKESNVQEVRCPVTVCGDVHGQFHDLMELFRIGGKSPDTNYLFMGDYVDRGYYSVETVTLLVALKVRYRERITILRGNHESRQITQVYGFYDECLRKYGNANVWKYFTDLFDYL
As to B1, the binding result is reported as “binds”.

The values above are taken from publication PMC3644067 (Nature Communications, 2013).
